The experiment concerns the target β2AR-T4L (β2AR with the third intracellular loop replaced by T4 lysozyme, truncated at position 365) (human) (UniProt P07550). The experiment is described as follows: cell-based or functional assay.

B1: Nanobody-80 (Nb80) (VHH, not shown: small tags and cut ends)
VHH: QVQLQESGGGLVQAGGSLRLSCAASGSIFSINTMGWYRQAPGKQRELVAAIHSGGSTNYANSVKGRFTISRDNAANTVYLQMNSLKPEDTAVYYCNVKDYGAVLYEYDYWGQGTQVTVSS
As to B1, the High affinity state Ki of (-)-isoproterenol, [3H]-DHA competition binding, β2AR-T4L in HDL particles + 1 µM NB80 (β2AR-T4L alone: 33.5) stood at 0.56 nM and the fold increase of the affinity of isoproterenol came to 60 fold.

The values are drawn from patent US20130137856A1, “PROTEIN BINDING DOMAINS STABILIZING FUNCTIONAL CONFORMATIONAL STATES OF GPCRS AND USES THEREOF” (priority 2010, published 2013).
